What was measured:
[1] = molecular target: T1, human CD3 epsilon subunit (CD3e), as cell surface CD3 on Jurkat cells and on naive human T cells (human, UniProt P07766 23-207); experiment: FACS on Jurkat cells expressing CD3
T1 construct: On the cells CD3 epsilon is part of the whole CD3/TCR complex

[2] = molecular target: T1, human CD3 epsilon subunit (CD3e), as …; experiment: cell-based or functional assay
[3] = molecular target: T2, CD3ed (CD3 epsilon/delta fusion protein) (human); experiment: SPR, recombinant human CD3
T2 construct: Expressed in HEK293 and purified on His60 resin and by SEC; also called soluble human CD3ed antigen; hCD3ed
T2 chain: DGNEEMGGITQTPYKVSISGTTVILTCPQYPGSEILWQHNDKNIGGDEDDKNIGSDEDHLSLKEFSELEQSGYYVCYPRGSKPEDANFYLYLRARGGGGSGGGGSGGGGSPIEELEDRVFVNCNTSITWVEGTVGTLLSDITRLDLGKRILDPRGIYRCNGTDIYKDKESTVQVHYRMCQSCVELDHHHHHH

[4] = molecular target: T1, human CD3 epsilon subunit (CD3e), as …; experiment: flow cytometry, cell surface binding to human CD3 on naive human T cells
Source text: Purified CD3 bispecific antibodies were titrated for cell surface binding to human CD3 on naïve human T cells purified from fresh human peripheral blood mononuclear cells (PBMCs), using the standard flow cytometry methods known in the art using BD LSRII Fortessa analyzer.

[5] = molecular target: T1, human CD3 epsilon subunit (CD3e), as …; experiment: flow cytometry titration on naive human T cells (PE-A Geo Mean against Ab in nM); Kd printed beside the legend

B1: 2B5-0006 (2B5v6) (antibody, V domains shown)
VH: EVQLVESGGGLVQPGGSLRLSCAASGFTFSDYYMTWVRQAPGKGLEWVAFIRNQARGYTSDHNPSVKGRFTISRDNAKNSLYLQMNSLRAEDTAVYYCARDRPSYYVLDYWGQGTTVTVSS
VL: DIQMTQSPSSLSASVGDRVTITCTSSQSLFNVRSQKNYLAWYQQKPGKAPKLLIYWASTRESGVPSRFSGSGSGTDFTLTISSLQPEDFATYYCKQSYDLFTFGGGTKVEIK
notes: also called h2B5v6; parental 2B5v6
EC50 [1]: 0.0098 µM

B2: GUCY2C-1608 (GUCY2c-2B5v6) bispecific antibody (bispecific antibody)
chain 1: DIQLTQSPSSLSASVGDRVTITCRASESVDYYGSSLLQWYQQKPGKAPKLLIYAASKLASGVPSRFSGSGSGTDFTLTISSLQPEDFATYYCQQTRKAYTFGQGTKLEIKGGGSGGGGEVQLVESGGGLVQPGGSLRLSCAASGFTFSDYYMTWVRQAPGKGLEWVAFIRNQARGYTSDHNPSVKGRFTISRDNAKNSLYLQMNSLRAEDTAVYYCARDRPSYYVLDYWGQGTTVTVSSGCPPCPAPEAAGAPSVFLFPPKPKDTLMISRTPEVTCVVVDVSHEDPEVKFNWYVDGVEVHNAKTKPREEQYNSTYRVVSVLTVLHQDWLNGKEYKCKVSNKALPAPIEKTISKAKGQPREPQVCTLPPSREEMTKNQVSLWCLVKGFYPSDIAVEWESNGQPENNYKTTPPVLDSDGSFFLYSKLTVDKSRWQQGNVFSCSVMHEALHNHYTQKSLSLSPG
chain 2: DIQMTQSPSSLSASVGDRVTITCTSSQSLFNVRSQKNYLAWYQQKPGKAPKLLIYWASTRESGVPSRFSGSGSGTDFTLTISSLQPEDFATYYCKQSYDLFTFGGGTKVEIKGGGGSGGGGEVQLVESGGGLVQPGGSLRLSCAASGFTFSSYWMHWVRQAPGKGLEWIGEIKPSNELTNVHEKFKDRFTISVDKAKNSAYLQMNSLRAEDTAVYYCTRTITTTEGYWFFDVWGQGTLVTVSSGCPPCPAPEAAGAPSVFLFPPKPKDTLMISRTPEVTCVVVDVSHEDPEVKFNWYVDGVEVHNAKTKPREEQYNSTYRVVSVLTVLHQDWLNGKEYKCKVSNKALPAPIEKTISKAKGQPREPQVYTLPPCREEMTKNQVSLSCAVKGFYPSDIAVEWESNGQPENNYKTTPPVLDSDGSFFLVSKLTVDKSRWQQGNVFSCSVMHEALHNHYTQKSLSLSPG
notes: Bispecific diabody-Fc
In vitro Cytotoxicity [2]: 0.772 nM
Kd [3]: 0.128 µM
EC50 [4]: 0.0354 µM

B3: GUCY2c-2B5 bispecific antibody (bispecific antibody, human IgG1)
chain 1: DIQLTQSPSSLSASVGDRVTITCRASESVDYYGTSLMQWYQQKPGKPPKLLIYAASNVESGVPSRFSGSGSGTDFTLTISSLQPEDFATYYCQQTRKVYTFGQGTKLEIKGGGSGGGGEVQLVESGGGLVQPGGSLRLSCAASGFTFSDYYMTWVRQAPGKGLEWVAFIRNRARGYTSDHNPSVKGRFTISRDNAKNSLYLQMNSLRAEDTAVYYCARDRPSYYVLDYWGQGTTVTVSSGCPPCPAPEAAGAPSVFLFPPKPKDTLMISRTPEVTCVVVDVSHEDPEVKFNWYVDGVEVHNAKTKPREEQYNSTYRVVSVLTVLHQDWLNGKEYKCKVSNKALPAPIEKTISKAKGQPREPQVCTLPPSREEMTKNQVSLWCLVKGFYPSDIAVEWESNGQPENNYKTTPPVLDSDGSFFLYSKLTVDKSRWQQGNVFSCSVMHEALHNHYTQKSLSLSPG
chain 2: DIQMTQSPSSLSASVGDRVTITCTSSQSLFNVRSRKNYLAWYQQKPGKAPKLLIYWASTRESGVPSRFSGSGSGTDFTLTISSLQPEDFATYYCKQSYDLFTFGGGTKVEIKGGGSGGGGEVQLVESGGGLVQPGGSLRLSCAASGYTFTSYWMHWVRQAPGKGLEWIGEIKPSNGLTNYIEKFKNRFTISVDKAKNSAYLQMNSLRAEDTAVYYCTRTITTTEGYWFFDVWGQGTLVTVSSGCPPCPAPEAAGAPSVFLFPPKPKDTLMISRTPEVTCVVVDVSHEDPEVKFNWYVDGVEVHNAKTKPREEQYNSTYRVVSVLTVLHQDWLNGKEYKCKVSNKALPAPIEKTISKAKGQPREPQVYTLPPCREEMTKNQVSLSCAVKGFYPSDIAVEWESNGQPENNYKTTPPVLDSDGSFFLVSKLTVDKSRWQQGNVFSCSVMHEALHNHYTQKSLSLSPG
notes: Bispecific diabody-Fc (knob-in-hole, effector null human IgG1 Fc); also called GUCY2c-0250
Kd [5]: 0.0132 µM
